Assay in all cases: cell-based or functional assay
The target in test [1] is intact rat PTH-1 receptor with HA epitope tag (rWT-HA) (rat, UniProt P25961 23-92; P25961 27-591).
In test [2] the target is T1, human PTH-1 receptor (human, UniProt Q03431 27-593).
T1 sequence (looked up): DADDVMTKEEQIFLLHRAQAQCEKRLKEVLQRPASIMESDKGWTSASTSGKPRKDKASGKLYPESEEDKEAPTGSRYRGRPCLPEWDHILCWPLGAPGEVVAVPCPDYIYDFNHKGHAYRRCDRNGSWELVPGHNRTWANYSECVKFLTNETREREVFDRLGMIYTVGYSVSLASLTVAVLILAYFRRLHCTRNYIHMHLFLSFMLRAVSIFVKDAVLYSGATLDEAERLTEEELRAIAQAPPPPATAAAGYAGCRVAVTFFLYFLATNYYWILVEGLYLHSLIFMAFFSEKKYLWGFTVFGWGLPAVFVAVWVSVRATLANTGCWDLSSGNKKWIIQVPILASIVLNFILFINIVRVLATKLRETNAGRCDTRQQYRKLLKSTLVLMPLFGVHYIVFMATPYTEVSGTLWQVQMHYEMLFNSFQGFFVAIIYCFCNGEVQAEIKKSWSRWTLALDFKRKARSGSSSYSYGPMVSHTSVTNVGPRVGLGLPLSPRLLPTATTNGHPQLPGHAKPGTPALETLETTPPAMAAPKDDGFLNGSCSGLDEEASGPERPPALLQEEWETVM

For test [3], the target named is T2, truncated rat PTH-1 receptor rΔNt (rat, UniProt P25961 182-591).
T2 sequence: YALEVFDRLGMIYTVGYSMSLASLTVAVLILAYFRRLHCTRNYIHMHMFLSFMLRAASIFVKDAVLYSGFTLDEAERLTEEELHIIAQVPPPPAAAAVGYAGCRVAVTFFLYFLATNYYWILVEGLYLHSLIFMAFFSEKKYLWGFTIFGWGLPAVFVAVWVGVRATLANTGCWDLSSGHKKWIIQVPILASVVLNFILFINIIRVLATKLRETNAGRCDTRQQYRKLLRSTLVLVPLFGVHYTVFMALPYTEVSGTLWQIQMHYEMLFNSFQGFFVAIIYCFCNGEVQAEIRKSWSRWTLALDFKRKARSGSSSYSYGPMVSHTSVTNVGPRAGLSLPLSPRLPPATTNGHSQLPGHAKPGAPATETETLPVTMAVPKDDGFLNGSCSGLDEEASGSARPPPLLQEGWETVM

Where no end group is shown, it is not given here.

Sequence of intact rat PTH-1 receptor with HA epitope tag (rWT-HA) (P25961 whole entry, one chain of several): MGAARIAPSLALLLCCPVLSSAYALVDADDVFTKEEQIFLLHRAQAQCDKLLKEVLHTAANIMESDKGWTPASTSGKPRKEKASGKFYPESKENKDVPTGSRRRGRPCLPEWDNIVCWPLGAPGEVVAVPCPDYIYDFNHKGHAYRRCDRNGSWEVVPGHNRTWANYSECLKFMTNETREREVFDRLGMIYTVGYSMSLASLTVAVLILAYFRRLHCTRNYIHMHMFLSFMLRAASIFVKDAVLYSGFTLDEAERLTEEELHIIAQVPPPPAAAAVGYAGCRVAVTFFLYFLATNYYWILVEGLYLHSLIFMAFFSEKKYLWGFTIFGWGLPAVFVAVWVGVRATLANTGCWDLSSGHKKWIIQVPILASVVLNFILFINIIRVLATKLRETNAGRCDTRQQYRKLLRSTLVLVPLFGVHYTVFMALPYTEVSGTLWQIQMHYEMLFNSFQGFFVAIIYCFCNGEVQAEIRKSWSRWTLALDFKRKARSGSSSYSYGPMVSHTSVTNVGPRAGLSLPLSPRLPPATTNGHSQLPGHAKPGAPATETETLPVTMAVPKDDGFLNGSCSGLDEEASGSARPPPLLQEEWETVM

Regarding AVSEIQLMHNLGKH-NH2 (peptide, UniProt P04089 32-45, looked up) [rat PTH(1-14)], in test [1], the cAMP formation amounted to 15 fold. For the same molecule, in test [2], the “cAMP formation over the basal level” value was ~20 fold and the “cAMP potency relative to PTH(1-34)” value was ~5 orders of magnitude. For the same molecule, the “cAMP potency relative to PTH(1-34)” value in test [3] was 2 orders of magnitude.

The values are drawn from patent US7169567 (GENERAL HOSPITAL, dated 2007).
